Reference: patent US20040005320A1 (ZymoGenetics, published 2004)

Tests used:
IL-20RA = biological target: T1, IL-20RA (human, UniProt Q9UHF4 30-553); test: radiolabeled ligand binding on stably transfected BHK cells
T1 construct: Expressed alone on stably transfected BHK cells; also called Zcytor7; IL-20RA subunit alone
T1 sequence: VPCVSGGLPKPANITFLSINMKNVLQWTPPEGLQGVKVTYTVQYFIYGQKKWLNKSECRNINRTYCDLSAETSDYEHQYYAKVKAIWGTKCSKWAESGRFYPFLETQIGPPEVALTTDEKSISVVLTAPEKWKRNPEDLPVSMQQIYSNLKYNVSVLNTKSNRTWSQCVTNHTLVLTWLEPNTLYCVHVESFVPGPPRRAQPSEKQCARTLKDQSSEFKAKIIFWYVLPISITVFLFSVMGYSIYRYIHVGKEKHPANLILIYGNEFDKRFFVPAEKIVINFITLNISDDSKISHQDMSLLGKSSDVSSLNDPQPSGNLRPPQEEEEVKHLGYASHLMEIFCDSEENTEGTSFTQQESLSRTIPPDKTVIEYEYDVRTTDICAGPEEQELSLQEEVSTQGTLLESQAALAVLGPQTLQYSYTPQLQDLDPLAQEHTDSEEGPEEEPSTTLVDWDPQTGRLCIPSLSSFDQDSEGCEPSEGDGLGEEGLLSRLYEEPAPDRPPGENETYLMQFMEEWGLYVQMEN
Procedure: (§1) The specificity and affinity of IL-20 for its receptor was determined using BHK cells stably transfected with IL-20RA, IL-20RB or both receptor subunits. […] Binding of ¹²⁵I-labeled IL-20 was eliminated in the presence of 100-fold excess of unlabeled IL-20 but not with 100-fold excess of the unrelated cytokine, IL-21.

IL-20RB = biological target: T2, IL-20RB (human, UniProt Q6UXL0 30-311); test: as above
T2 construct: Expressed alone on stably transfected BHK cells; also called IL-20RB subunit alone
T2 sequence: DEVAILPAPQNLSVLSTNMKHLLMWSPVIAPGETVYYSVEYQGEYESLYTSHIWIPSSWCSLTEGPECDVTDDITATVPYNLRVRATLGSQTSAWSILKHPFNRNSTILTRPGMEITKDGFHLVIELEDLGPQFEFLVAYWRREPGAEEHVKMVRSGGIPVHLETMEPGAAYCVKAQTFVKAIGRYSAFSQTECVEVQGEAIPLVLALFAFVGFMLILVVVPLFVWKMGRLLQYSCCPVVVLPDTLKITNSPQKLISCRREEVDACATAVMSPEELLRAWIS
Procedure: as §1

[1] = biological target: T3, IL-20RA/IL-20RB heterodimeric receptor (human, UniProt Q9UHF4 30-553; Q6UXL0 30-311); test: 125I-labeled IL-20 binding on BHK cells expressing IL-20RA and IL-20RB
T3 construct: Both subunits were co-expressed on transfected COS, BHK or BaF3 cells, or were endogenous on human HaCaT keratinocytes; also called IL-20RB/IL-20RA heterodimer; IL-20 receptor
T3 sequence 1: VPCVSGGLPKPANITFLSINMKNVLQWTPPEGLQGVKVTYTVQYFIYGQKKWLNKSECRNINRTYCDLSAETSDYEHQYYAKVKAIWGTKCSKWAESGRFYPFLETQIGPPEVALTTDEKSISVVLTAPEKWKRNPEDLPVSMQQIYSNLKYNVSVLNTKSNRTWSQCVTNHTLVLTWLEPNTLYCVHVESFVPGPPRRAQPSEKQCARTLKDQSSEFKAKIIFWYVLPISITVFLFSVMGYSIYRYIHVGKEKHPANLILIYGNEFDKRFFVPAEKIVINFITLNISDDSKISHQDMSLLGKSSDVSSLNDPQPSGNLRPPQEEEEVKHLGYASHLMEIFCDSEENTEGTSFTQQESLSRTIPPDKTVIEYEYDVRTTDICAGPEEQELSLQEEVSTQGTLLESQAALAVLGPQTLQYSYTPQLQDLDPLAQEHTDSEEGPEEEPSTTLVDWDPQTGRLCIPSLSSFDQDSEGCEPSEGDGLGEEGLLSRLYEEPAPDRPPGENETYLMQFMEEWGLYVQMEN
T3 sequence 2: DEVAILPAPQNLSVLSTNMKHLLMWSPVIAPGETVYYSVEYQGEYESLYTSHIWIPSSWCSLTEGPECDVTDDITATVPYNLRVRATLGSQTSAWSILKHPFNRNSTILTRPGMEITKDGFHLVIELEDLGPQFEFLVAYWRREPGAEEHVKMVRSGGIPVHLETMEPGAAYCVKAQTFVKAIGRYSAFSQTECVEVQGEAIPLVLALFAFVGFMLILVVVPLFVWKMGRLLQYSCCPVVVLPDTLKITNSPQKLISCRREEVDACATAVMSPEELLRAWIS
Procedure: as §1

- binding result (IL-20RA): no binding
- binding result (IL-20RB): no binding
- Kd [1]: ~1.5 nM
B1: IL-20 (ligand, UniProt Q9NYY1 25-176, looked up)
chain: LKTLNLGSCVIATNLQEIRNGFSEIRGSVQAKDGNIDIRILRRTESLQDTKPANRCCLLRHLLRLYLDRVFKNYQTPDHYTLRKISSLANSFLTIKKDLRLCHAHMTCHCGEEAMKKYSQILSHFEKLEPQAAVVKALGELDILLQWMEETE
notes: also called biotin-labeled IL-20 protein; biotinylated IL-20
